In series [1] the test system is DpnI biotinylated (bDpnI). The series can be described thus: pulldown.
Series [2] relates to anti-N6-methyladenine monoclonal antibody (best hybridoma) (Mus musculus). The series can be described thus: ELONA. Particulars: N6-methyladenine at position 6 (printed as marked A) [6 (N6-methyladenine)]; nearly 40 fold discrimination.
Series [3] relates to anti-N6-methyladenine mouse polyclonal antisera (Mus musculus). The series can be described thus: ELONA. The settings on record: N6-methyladenine at position 6 (printed as marked A) [6 (N6-methyladenine)]; oligo ELISA, antisera 1:10,000.

Some results are limits rather than exact numbers.

As for E. coli genomic DNA, the binding signal in series [1] (N6-methyladenine at GATC (dam), 10 ng E. coli DNA in 1 ug human DNA, at least 30% at pg input) is over 80 % recovered.
With GCAGGATCAACAGTCACACT [N6mA oligo], the figures for the binding signal (fold preference over unmethylated oligo) in series [2] and in series [3] were 40 and over 10, respectively.
For human genomic DNA, in series [1] (1 ug human DNA, one wash, reduced to 1% with three washes), the binding signal was determined as 10 % recovered.

These data come from patent US20130017541.
